Data taken from article PMC7948422, “Repurposing p97 inhibitors for chemical modulation of the bacterial ClpB–DnaK bichaperone system” (The Journal of Biological Chemistry, 2020).
*: point of attachment. FITC = O=C1OC2(c3ccc(O)cc3Oc3cc(O)ccc32)c2ccc(NC(=S)*)cc21; Ahx = NCCCCCC(=O)O

Biological target: T1, full-length E. coli DnaK (residues 1–638) (Escherichia coli, UniProt P0A6Y8 1-638)
T1 construct: DnaK (Hsp70), Escherichia coli, residues 1-638; cloned from pTTQ19dnaK+ into pET28a; source: E. coli BL21(DE3), purified (Q Sepharose, DEAE-Sephacel, Superdex 200)
Assay: fluorescence polarisation; fluorescence anisotropy of FITC-B2 with 1-μM DnaK in buffer C (50-mM Tris-HCl pH 7.4, 20-mM MgCl2, 1-mM EDTA, 0.5-mM TCEP), DBeQ solutions in DMSO added, room temperature, 30-min incubation
Details: both partners purified

T1 sequence (P0A6Y8 whole entry, the tested form may be a part): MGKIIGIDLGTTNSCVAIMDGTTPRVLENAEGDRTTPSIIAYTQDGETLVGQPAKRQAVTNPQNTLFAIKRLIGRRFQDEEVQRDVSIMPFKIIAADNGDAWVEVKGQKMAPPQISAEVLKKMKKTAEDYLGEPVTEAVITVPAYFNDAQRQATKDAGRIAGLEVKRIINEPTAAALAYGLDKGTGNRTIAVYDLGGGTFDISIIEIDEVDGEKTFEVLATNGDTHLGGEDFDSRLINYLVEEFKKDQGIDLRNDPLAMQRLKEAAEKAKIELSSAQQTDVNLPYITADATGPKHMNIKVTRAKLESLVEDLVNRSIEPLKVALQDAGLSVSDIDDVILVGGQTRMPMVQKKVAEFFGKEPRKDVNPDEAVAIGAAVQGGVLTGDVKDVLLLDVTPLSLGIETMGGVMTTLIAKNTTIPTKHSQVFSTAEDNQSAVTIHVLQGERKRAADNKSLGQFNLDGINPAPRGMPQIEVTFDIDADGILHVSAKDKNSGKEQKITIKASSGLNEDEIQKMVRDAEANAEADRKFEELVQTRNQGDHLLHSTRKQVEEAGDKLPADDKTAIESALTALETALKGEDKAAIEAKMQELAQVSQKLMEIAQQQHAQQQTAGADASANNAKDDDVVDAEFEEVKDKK

B1: FITC-B2 (FITC-Ahx-QRKLFFNLRKTKQRLGWFNQ-NH2) (peptide)
peptide: {FITC-Ahx}-QRKLFFNLRKTKQRLGWFNQ-NH2
SMILES: CC(C)C[C@H](NC(=O)[C@H](CCCNC(=N)N)NC(=O)[C@H](CCC(N)=O)NC(=O)[C@H](CCCCN)NC(=O)[C@@H](NC(=O)[C@H](CCCCN)NC(=O)[C@H](CCCNC(=N)N)NC(=O)[C@H](CC(C)C)NC(=O)[C@H](CC(N)=O)NC(=O)[C@H](Cc1ccccc1)NC(=O)[C@H](Cc1ccccc1)NC(=O)[C@H](CC(C)C)NC(=O)[C@H](CCCCN)NC(=O)[C@H](CCCNC(=N)N)NC(=O)[C@H](CCC(N)=O)NC(=O)CCCCCNC(=S)Nc1ccc2c(c1)C(=O)OC21c2ccc(O)cc2Oc2cc(O)ccc21)[C@@H](C)O)C(=O)NCC(=O)N[C@@H](Cc1c[nH]c2ccccc12)C(=O)N[C@@H](Cc1ccccc1)C(=O)N[C@@H](CC(N)=O)C(=O)N[C@@H](CCC(N)=O)C(N)=O
notes: peptide B2, substrate-mimicking peptide; also called FITC-labeled peptide B2; substrate-mimicking peptide; source: obtained as described before (65)
Question: Does B1 bind?
Answer: binds
